Experimental data as given in patent US20150362496A1 (ONCOMATRYX BIOPHARMA S L, published 2015).

B1: 1E8.33 monoclonal antibody (antibody, V domains shown)
VH: EVQLQESGPELVKTGSSVKISCKASGYSFTGYYMHWVKQSQGKSLEWIGYINCYNGATSYNRNFKGKATFTVDTSSSTAYMQFNSLTSGDSAVYYCAIWDYEFHVMDYWGQRTSLTVSS
VL: ENVLTQSPAIMSASLGEKVTMSCRASSSVNYMYWYQQKSDASPKLWIYYTSNLAPGVPARFSGSGSGNSYSLTISSMEGEDADTYYCQQFTSSPWTFGGGTKLEIK
notes: they are variable domains only; also called 1E8.33 mAb; 1E8.33 clone
B2: peptide YNYGTMESYQTEAPR (peptide)
peptide: YNYGTMESYQTEAPR
notes: 15-residue peptide of the proCOL11A1 VAR region; also called the mentioned peptide

Tests used:
[1] = biological target: T1, proCOL5A1 expressed in SAOS-2 osteosarcoma cells (UniProt P20908 38-1838, limits assumed); experiment: immunocytochemistry on SAOS-2 cells
T1 construct: Endogenous protein in cells, stained by immunocytochemistry

[2] = biological target: B1; experiment: peptide blocking of 1E8.33 in Western blot of A204 cells
Experimental: FIG. 8: 1E8.33 mAb blocking test for locating the epitope, performed by means of Western blot of A204 cells. The detection was performed with a mixture of the antibody and different peptides. Lane 1: negative control without antibody. Lane 2: FQEYNYG. Lane 3: […]. Lane 4: […]. Lane 5: […]. Lane 6: […]. Lane 7: positive control with the unblocked 1E8.33 mAb. Complete blocking was observed only in lane 6.

T1 sequence (P20908 38-1838 limits assumed): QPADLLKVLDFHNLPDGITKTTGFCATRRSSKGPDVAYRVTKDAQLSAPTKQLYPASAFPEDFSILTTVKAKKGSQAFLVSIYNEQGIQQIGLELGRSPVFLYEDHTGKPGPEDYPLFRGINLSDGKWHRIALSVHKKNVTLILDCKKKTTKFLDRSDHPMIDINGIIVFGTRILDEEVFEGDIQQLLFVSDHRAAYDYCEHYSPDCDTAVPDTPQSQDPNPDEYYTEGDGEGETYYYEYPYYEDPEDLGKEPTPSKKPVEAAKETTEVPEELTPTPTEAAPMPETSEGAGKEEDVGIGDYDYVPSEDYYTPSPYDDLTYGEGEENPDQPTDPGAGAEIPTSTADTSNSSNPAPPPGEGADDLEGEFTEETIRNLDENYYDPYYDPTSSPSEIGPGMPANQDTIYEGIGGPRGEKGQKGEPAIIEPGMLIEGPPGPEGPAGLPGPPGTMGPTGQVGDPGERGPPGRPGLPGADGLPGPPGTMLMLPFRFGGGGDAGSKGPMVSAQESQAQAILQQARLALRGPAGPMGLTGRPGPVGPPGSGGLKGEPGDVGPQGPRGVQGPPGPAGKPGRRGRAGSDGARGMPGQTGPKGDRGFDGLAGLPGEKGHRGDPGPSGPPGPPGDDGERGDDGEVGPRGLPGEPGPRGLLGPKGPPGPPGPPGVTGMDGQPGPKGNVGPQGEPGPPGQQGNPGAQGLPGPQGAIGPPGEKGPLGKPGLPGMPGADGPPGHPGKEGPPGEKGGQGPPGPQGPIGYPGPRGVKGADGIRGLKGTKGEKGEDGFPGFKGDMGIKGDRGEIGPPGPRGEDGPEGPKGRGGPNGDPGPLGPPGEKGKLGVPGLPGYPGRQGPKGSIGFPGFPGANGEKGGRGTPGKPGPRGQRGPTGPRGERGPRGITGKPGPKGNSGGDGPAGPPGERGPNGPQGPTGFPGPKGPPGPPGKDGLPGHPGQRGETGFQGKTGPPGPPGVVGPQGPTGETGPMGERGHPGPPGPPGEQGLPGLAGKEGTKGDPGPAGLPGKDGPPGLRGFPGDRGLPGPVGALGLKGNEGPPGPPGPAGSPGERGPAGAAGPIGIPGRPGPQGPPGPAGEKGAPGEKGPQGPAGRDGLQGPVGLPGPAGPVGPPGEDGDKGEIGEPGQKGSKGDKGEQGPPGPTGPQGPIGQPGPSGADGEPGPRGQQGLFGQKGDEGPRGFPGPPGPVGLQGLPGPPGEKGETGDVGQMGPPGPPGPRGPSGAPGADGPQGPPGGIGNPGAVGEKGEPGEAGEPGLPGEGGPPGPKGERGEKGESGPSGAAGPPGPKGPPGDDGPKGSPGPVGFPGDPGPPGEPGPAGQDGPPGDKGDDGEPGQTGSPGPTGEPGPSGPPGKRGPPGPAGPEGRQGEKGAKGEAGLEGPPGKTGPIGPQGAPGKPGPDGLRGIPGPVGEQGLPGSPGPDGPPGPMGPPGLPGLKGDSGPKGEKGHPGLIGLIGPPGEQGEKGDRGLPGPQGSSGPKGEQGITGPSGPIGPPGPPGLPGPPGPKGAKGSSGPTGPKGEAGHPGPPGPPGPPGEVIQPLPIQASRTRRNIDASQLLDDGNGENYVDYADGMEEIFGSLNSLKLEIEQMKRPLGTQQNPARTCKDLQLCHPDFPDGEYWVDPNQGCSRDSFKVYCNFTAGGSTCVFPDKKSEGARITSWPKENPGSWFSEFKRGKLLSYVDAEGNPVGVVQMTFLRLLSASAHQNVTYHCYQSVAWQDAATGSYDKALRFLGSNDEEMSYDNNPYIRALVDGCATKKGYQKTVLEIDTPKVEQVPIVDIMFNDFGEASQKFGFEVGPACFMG

B1
binding result [1]: no binding

B2
binding result [2]: binds
